According to patent WO2011161189A1 (dated 2011):

B1: Mab 2.7.35 (antibody, V domains shown)
VH: QIQLVQSGPELKKPGETVKISCKASGYTFTDYSMRWVKQAPGKGLKWMGWINTETGNPTYADDFKGRFAFSLETSASTAYLQINNLKNEDTARYFCARGFAYWGQGTLVTVSA
VL: QAVVTQESALTTSPGETVTLTCRSSTGAVTTSNYANWVQEKPDHLFTGLIGDTNNRAPGVPARFSGSLIGDKAALTITGAQTEDEAIYFCALWYSNHFIFGSGTKVTVL
notes: Mouse monoclonal antibody from Balb/c hybridoma; also called mouse Mab 2.7.35; mH35
B2: Mab55 (antibody, V domains shown)
VH: QVQLVQSGSELKKPGASVKVSCKASGYTFTDYSMRWVRQAPGQGLEWMGWINTETGSPTYADDFKGRFVFSLDTSVSTAYLQISSLKAEDTAVYYCARGFAYWGQGTLVTVSS
VL: QTVVTQEPSLTVSPGGTVTLTCRSSTGAVTTSNYANWVQQKPGQAFRGLIGDTNNRAPWTPARFSGSLLGGKAALTLSGVQPEDEAEYYCALWYSNHFIFGSGTKVTVL
notes: Humanized variant of Mab 2.7.35, stably expressed in CHO; also called hH35; humanized antibody Mab55
B3: Mab 2.3.35 (antibody, V domains shown)
VH: QVQLQQSGPELVKPGASVKVSCKASGYTFTDFVINWVKQRTGQGLEWIGEIYPRSNSIYSNEKFKGKATLTTDKSSNTAYMQVSSLTSEDSAVYFCARGSGDYAMDYWGQGTSVTVSS
VL: ENVLTQSPAIMSASPGEKVTMTCSASSSVTYMHWYQQKSSTSPKLWIYDTSKLASGVPGRFSGSGSGNSYSLTIRSMEAEDVATYFCFQGSGFPLTFGGGTKLEIK
notes: also called antibody 2.3.35
B4: Mab53 (antibody, V domains shown)
VH: QVQLVQSGAEVKKPGASVKVSCKASGYTFTDYSMRWVRQAPGQGLEWMGWINTETGNPAYAQKFQGRVTMTRDTSTSTVYMELSSLRSEDTAVYYCARGFAYWGQGTLVTVSS
VL: QTVVTQEPSLTVSPGGTVTLTCRSSTGAVTTSNYANWVQQKPGQAFRGLIGDTNNRAPWTPARFSGSLLGGKAALTLSGVQPEDEAEYYCALWYSNHFIFGSGTKVTVL
notes: Humanized variant of Mab 2.7.35

Tests used:
mouse hepsin = mouse hepsin (mouse, UniProt O35453 60-436, limits assumed); assay: cell-based or functional assay
[1] = target: T1, human hepsin (recombinant EE-tagged, amino acids 45-417, enzymatically active two-chain form) (human, UniProt P05981 45-417); assay: cell-based or functional assay
[2] = target: T1, human hepsin (recombinant EE-tagged, …); assay: SPR kinetics, antibody captured on CM5 chip, hepsin injected, 298 K
[3] = target: T1, human hepsin (recombinant EE-tagged, …); assay: Biacore (SPR)
cynomolgus hepsin = cynomolgus hepsin (cynomolgus monkey); assay: cell-based or functional assay
[4] = target: T1, human hepsin (recombinant EE-tagged, …); assay: enzyme kinetics (Ac-KQLR-AMC hydrolysis after preincubation), fit to tight binding inhibitor equations of the mixed type; apparent Ki

T1 sequence (P05981 other isoform, or with tags, fused parts or gaps limits assumed): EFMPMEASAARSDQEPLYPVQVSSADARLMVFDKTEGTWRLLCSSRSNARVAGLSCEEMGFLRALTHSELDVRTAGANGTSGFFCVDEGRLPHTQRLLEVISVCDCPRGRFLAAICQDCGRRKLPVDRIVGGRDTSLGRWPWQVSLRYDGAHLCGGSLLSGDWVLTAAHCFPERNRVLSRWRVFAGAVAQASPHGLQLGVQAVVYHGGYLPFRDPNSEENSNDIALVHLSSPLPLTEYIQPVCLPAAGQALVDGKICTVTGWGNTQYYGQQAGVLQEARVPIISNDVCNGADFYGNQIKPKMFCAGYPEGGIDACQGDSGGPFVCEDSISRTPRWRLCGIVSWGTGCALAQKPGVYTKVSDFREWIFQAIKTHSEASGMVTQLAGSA
Chain of mouse hepsin (O35453 60-436 limits assumed): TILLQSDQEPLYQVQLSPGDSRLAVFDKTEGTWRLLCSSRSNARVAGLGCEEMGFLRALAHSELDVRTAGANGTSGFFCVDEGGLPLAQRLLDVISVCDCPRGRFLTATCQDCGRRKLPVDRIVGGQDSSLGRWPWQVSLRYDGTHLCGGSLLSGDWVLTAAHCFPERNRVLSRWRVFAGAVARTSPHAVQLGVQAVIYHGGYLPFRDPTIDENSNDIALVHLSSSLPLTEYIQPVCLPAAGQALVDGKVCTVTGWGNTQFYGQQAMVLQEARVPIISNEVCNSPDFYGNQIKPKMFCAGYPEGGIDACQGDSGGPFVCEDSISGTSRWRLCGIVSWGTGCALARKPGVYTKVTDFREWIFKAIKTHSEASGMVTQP

Binder | IC 50 in enzymatic activity assay of murine hepsin (mouse hepsin) | IC 50 in enzymatic activity assay of human hepsin [1] | Kd [2] | Kd [3] | IC 50, cynomolgous hepsin assay (FRET peptide substrate) (cynomolgus hepsin) | IC 50, human hepsin inhibition assay (FRET peptide substrate) [1] | inhibition increase compared to the chimeric antibody [1] | inhibition increase compared to the murine antibody [1] | Ki [4]
B1 | > 200 nM | 14 nM | 31.5 nM | 4 nM |  |  |  |  | 
B2 |  |  | 7.1 nM |  | 0.99 nM | 1.02 nM | 6.7 fold | 14.7 fold | 0.39 nM
B3 |  | 7 nM |  | 22 nM |  |  |  |  | 
B4 |  |  | 36 nM |  |  |  |  |  | 
